# From paper PMC7720213, “Structure of eukaryotic DNA polymerase δ bound to the PCNA clamp while encircling DNA” (Proceedings of the National Academy of Sciences of the …, 2020)
# B1: S.c. DNA polymerase δ regulatory subunit Pol32 (natural protein, S. cerevisiae)
# chain: MDQKASYFINEKLFTEVKPVLFTDLIHHLKIGPSMAKKLMFDYYKQTTNAKYNCVVICCYKDQTIKIIHDLSNIPQQDSIIDCFIYAFNPMDSFIPYYDIIDQKDCLTIKNSYELKVSESSKIIERTKTLEEKSKPLVRPTARSKTTPEETTGRKSKSKDMGLRSTALLAKMKKDRDDKETSRQNELRKRKEENLQKINKQNPEREAQMKELNNLFVEDDLDTEEVNGGSKPNSPKETDSNDKDKNNDDLEDLLETTAEDSLMDVPKIQQTKPSETEHSKEPKSEEEPSSFIDEDGYIVTKRPATSTPPRKPSPVVKRALSSSKKQETPSSNKRLKKQGTLESFFKRKAK
# notes: Pol32, regulatory subunit of Saccharomyces cerevisiae DNA polymerase δ; Stood in the assay as part of the three-subunit Pol δ
# B2: T/P DNA (38-nt template / 25-nt primer) (dsDNA)
# DNA 1: CTGCACGAATTAAGCAATTCGTAATCATGGTCATAGCT
# DNA 2: AGCTATGACCATGATTACGAATTGC
# modifications: primer 3'-terminal dideoxy-C
# B3: 62-mer ssDNA (ssDNA)
# DNA: ATGCTTAGCCTGAGGACTATTCTACTTAACGCGAGTTACGTGACGGTATCTTATCCGGCGC
# B4: S.c. proliferating cell nuclear antigen (PCNA) sliding clamp (natural protein, S. cerevisiae)
# chain: MLEAKFEEASLFKRIIDGFKDCVQLVNFQCKEDGIIAQAVDDSRVLLVSLEIGVEAFQEYRCDHPVTLGMDLTSLSKILRCGNNTDTLTLIADNTPDSIILLFEDTKKDRIAEYSLKLMDIDADFLKIEELQYDSTLSLPSSEFSKIVRDLSQLSDSINIMITKETIKFVADGDIGSGSVIIKPFVDMEHPETSIKLEMDQPVDLTFGAKYLLDIIKGSSLSDRVGIRLSSEAPALFQFDLKSGFLQFFLAPKFNDEE
# notes: PCNA of Saccharomyces cerevisiae, homotrimeric ring; also called PCNA clamp; PCNA trimer; source: purified
# B5: S.c. DNA polymerase δ regulatory subunit Pol31 (natural protein, S. cerevisiae)
# chain: MDALLTKFNEDRSLQDENLSQPRTRVRIVDDNLYNKSNPFQLCYKKRDYGSQYYHIYQYRLKTFRERVLKECDKRWDAGFTLNGQLVLKKDKVLDIQGNQPCWCVGSIYCEMKYKPNVLDEVINDTYGAPDLTKSYTDKEGGSDEIMLEDESGRVLLVGDFIRSTPFITGVVVGILGMEAEAGTFQVLDICYPTPLPQNPFPAPIATCPTRGKIALVSGLNLNNTSPDRLLRLEILREFLMGRINNKIDDISLIGRLLICGNSVDFDIKSVNKDELMISLTEFSKFLHNILPSISVDIMPGTNDPSDKSLPQQPFHKSLFDKSLESYFNGSNKEILNLVTNPYEFSYNGVDVLAVSGKNINDICKYVIPSNDNGESENKVEEGESNDFKDDIEHRLDLMECTMKWQNIAPTAPDTLWCYPYTDKDPFVLDKWPHVYIVANQPYFGTRVVEIGGKNIKIISVPEFSSTGMIILLDLETLEAETVKIDI
# notes: Pol31 (B subunit), regulatory subunit of Saccharomyces cerevisiae DNA polymerase δ; Stood in the assay as part of the three-subunit Pol δ; also called B subunit
# Key:
# [1] = target: B5; experiment: cryo-EM structure; 8.0 uM PCNA and 6.0 uM T/P DNA mixed in Hepes-KOH pH 7.5, DTT, MgAc, KOAc, potassium glutamate, 0.4 mM ddTTP, then 3.3 uM Pol δ added; PCNA:Pol δ:T/P DNA 1.2:1:0.9; on ice 1 h; 3.2 Å map; conditions: both partners purified
# [2] = target: Pol delta exo- (Pol3-Pol31-Pol32);PCNA (Saccharomyces cerevisiae;Saccharomyces …, UniProt P15436;P46957;P47110;P15873 1-1097;1-487;1-350;1-258, D321S;E323S|); experiment: cryo-EM 3.2 A; ddTTP; 4Fe-4S cluster, Zn2+; EMSA: 50 mM Hepes pH 7.5, 5 mM MgCl2, 50 mM NaOAc, 1 mM DTT, 6% glycerol, 90 min at room temperature; 8% native PAGE in 40 mM Tris, 150 mM glycine pH 8.0; conditions: protein: recombinant;recombinant; tags: ;; copies: 1;1;1;3; 25 bp, 5' overhang 13 nt on template
# Pol31-Pol32 complex = Pol31-Pol32 complex (Saccharomyces cerevisiae, UniProt P46957;P47110 1-487;1-350); experiment: EMSA; 5 mM Mg2+; 0-5 uM protein, 0.5 nM DNA; EMSA: 50 mM Hepes pH 7.5, 5 mM MgCl2, 50 mM NaOAc, 1 mM DTT, 6% glycerol, 90 min at room temperature; 8% native PAGE in 40 mM Tris, 150 mM glycine pH 8.0; conditions: protein: recombinant; tags: GST tag removed with PreScission protease; copies: 1;1; label: 5'-32P; single strand
# [3] = target: T1, S.c. DNA polymerase δ catalytic subunit Pol3 with the D321S and E323S mutations in the exonuclease active site (S. cerevisiae, UniProt P15436 1-1097, D321S | E323S); experiment: cryo-EM structure; 8.0 uM PCNA and 6.0 uM T/P DNA mixed in Hepes-KOH pH 7.5, DTT, MgAc, KOAc, potassium glutamate, 0.4 mM ddTTP, then 3.3 uM Pol δ added; PCNA:Pol δ:T/P DNA 1.2:1:0.9; on ice 1 h; 3.2 Å map; conditions: both partners purified
# T1 construct: Pol3, catalytic subunit of Saccharomyces cerevisiae DNA polymerase δ; carries a 4Fe-4S cluster (CysB) and a zinc finger (CysA); Stood in the assay as part of the three-subunit Pol δ; also called catalytic subunit of Pol δ^exo-
# T1 sequence: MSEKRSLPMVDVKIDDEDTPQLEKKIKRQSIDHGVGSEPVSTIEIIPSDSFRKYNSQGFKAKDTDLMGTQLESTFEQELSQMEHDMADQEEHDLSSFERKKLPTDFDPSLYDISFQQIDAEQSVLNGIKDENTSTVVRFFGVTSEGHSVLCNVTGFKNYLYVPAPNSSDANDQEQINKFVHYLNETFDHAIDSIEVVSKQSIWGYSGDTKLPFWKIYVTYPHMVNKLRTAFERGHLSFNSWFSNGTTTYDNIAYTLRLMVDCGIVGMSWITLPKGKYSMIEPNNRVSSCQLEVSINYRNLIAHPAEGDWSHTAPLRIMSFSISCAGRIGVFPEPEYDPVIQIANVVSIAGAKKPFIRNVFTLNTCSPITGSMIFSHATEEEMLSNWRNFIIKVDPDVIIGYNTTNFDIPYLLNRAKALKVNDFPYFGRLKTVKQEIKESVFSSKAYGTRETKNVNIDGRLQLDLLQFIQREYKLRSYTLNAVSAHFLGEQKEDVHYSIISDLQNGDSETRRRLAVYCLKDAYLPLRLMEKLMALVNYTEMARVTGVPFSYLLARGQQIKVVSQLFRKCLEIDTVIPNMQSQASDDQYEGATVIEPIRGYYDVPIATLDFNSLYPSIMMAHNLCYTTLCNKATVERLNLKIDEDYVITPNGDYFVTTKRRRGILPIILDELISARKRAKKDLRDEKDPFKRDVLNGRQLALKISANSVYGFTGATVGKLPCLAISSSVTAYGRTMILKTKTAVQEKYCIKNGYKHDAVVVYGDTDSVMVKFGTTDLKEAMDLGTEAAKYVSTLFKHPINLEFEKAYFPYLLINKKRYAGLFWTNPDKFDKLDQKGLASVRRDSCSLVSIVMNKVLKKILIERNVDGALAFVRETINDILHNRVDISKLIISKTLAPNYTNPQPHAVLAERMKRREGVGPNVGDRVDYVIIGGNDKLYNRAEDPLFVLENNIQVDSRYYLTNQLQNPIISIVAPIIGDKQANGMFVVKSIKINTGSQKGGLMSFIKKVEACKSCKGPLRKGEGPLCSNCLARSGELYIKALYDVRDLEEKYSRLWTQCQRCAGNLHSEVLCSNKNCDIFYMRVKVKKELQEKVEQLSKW
# [4] = target: T2, S.c. DNA polymerase δ (Pol3-Pol31-Pol32) harboring the D321S and E323S mutations in the exonuclease domain of … (S. cerevisiae, UniProt P15436 1-1097; P46957 1-487; P47110 1-350, D321S | E323S); experiment: as above; conditions: both partners purified
# T2 construct: Pol3, catalytic subunit of Saccharomyces cerevisiae DNA polymerase δ; Pol31 (B subunit), regulatory subunit of Saccharomyces cerevisiae DNA polymerase δ; Pol32, regulatory subunit of Saccharomyces cerevisiae DNA polymerase δ; also called Pol δ^exo-; Pol δ; copies: + +
# [5] = target: the molecule itself; experiment: as above
binder,measurement,setting,value
B1,binding result,[1],binds
B2,binding result,[2],binds
B3,binding result,Pol31-Pol32 complex,binds
B4,binding result,[3],binds
same,binding result,[4],binds
same,stoichiometry N,[5],3
B5,binding result,[3],binds
